The text below walks through data of patent US8349797 (dated 2013).

In general, Ki refers to a measure of affinity in units of concentration, obtained from inhibition or displacement.

Read-outs that look alike come from different tables or passages of the source. Bridges are numbered along the chain shown (N, C = ends). [ ]: non-standard residue; d: D form. 1Nal = N[C@@H](Cc1cccc2ccccc12)C(=O)O; 2Nal = N[C@@H](Cc1ccc2ccccc2c1)C(=O)O; d2Nal = N[C@H](Cc1ccc2ccccc2c1)C(=O)O; Aib = CC(C)(N)C(=O)O; βAla = NCCC(=O)O

What all share (experiment): competition
Assay [1] deals with T1, hMC4-R (human, UniProt P32245).
T1 sequence (P32245 whole entry): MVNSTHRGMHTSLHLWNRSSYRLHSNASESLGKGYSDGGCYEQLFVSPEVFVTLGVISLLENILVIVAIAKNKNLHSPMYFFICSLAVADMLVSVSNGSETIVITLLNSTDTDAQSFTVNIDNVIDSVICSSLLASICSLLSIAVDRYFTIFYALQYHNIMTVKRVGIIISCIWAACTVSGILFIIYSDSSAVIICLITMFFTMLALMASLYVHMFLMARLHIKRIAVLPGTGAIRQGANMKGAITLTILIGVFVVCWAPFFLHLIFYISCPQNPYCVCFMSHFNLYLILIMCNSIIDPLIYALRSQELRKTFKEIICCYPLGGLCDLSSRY
For assay [2], the target named is T2, hMC3-R (human, UniProt P41968).
T2 sequence (P41968 whole entry): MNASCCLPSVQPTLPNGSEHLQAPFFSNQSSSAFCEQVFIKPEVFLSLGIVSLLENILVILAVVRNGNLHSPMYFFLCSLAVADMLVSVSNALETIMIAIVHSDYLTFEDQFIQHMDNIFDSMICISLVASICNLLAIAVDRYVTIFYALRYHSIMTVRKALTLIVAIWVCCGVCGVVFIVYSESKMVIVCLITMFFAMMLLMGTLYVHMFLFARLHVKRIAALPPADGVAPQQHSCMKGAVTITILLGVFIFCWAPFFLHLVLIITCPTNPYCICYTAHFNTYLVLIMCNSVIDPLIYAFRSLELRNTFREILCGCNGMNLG
Assay [3] deals with T3, hMC5-R (human, UniProt P33032).
T3 sequence (P33032 whole entry): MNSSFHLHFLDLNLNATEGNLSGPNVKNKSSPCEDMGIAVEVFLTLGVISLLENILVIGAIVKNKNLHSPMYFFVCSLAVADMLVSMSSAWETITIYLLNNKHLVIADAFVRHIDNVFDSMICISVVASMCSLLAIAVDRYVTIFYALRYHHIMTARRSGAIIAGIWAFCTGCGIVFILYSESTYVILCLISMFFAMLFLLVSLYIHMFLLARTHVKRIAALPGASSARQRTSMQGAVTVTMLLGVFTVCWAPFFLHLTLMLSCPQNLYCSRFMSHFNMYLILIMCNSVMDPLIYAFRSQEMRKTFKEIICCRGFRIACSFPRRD
Assay [4] deals with T4, hMC1-R (human, UniProt Q01726).
T4 sequence (Q01726 whole entry): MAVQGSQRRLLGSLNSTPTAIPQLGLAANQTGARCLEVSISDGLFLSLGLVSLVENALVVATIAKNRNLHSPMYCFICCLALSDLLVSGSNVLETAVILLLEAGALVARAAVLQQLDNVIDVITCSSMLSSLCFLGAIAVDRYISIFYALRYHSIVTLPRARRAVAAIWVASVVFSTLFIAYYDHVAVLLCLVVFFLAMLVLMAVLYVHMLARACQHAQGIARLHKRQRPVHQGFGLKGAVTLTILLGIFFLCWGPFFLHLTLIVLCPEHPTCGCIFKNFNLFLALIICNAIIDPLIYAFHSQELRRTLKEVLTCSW
In assay [5] the target is T3, hMC5-R. This is another data set of the same source.
Assay [6] deals with T1, hMC4-R. The source holds these as a separate data set.
Assay [7] has as its target T4, hMC1-R. The source holds these as a separate data set.
Assay [8] has as its target T2, hMC3-R. The source holds these as a separate data set.

B1: Table 2A compound 14 (peptide)
chain: Ac-CEH[d2Nal]R[2Nal]ACPPKD-NH2
modifications: disulfide 1-8
SMILES: CC(=O)N[C@H]1CSSC[C@@H](C(=O)N2CCC[C@H]2C(=O)N2CCC[C@H]2C(=O)N[C@@H](CCCCN)C(=O)N[C@@H](CC(=O)O)C(N)=O)NC(=O)[C@H](C)NC(=O)[C@H](Cc2ccc3ccccc3c2)NC(=O)[C@H](CCCNC(=N)N)NC(=O)[C@@H](Cc2ccc3ccccc3c2)NC(=O)[C@H](Cc2c[nH]cn2)NC(=O)[C@H](CCC(=O)O)NC1=O
B1: the Ki with hMC4-R [1] amounted to 1.2 nM; with hMC3-R [2], 9.08 nM; in the assay with hMC5-R [3] it was 359 nM; with hMC1-R [4] it was 87.8 nM.

B2: Table 2A compound 15 (peptide)
chain: Ac-CEH[d2Nal]R[1Nal]ACPPKD-NH2
modifications: disulfide 1-8
SMILES: CC(=O)N[C@H]1CSSC[C@@H](C(=O)N2CCC[C@H]2C(=O)N2CCC[C@H]2C(=O)N[C@@H](CCCCN)C(=O)N[C@@H](CC(=O)O)C(N)=O)NC(=O)[C@H](C)NC(=O)[C@H](Cc2cccc3ccccc23)NC(=O)[C@H](CCCNC(=N)N)NC(=O)[C@@H](Cc2ccc3ccccc3c2)NC(=O)[C@H](Cc2c[nH]cn2)NC(=O)[C@H](CCC(=O)O)NC1=O
For B2, the Ki with hMC4-R [1] turned out to be 1.11 nM; with hMC3-R [2], 17.8 nM; in the assay with hMC5-R [3], 348 nM; with hMC1-R [4], 124 nM.

B3: Table 2B compound 2 (peptide)
chain: Ac-CEH[d2Nal]R[2Nal][Aib]CPPKD-NH2
modifications: disulfide 1-8
SMILES: CC(=O)N[C@H]1CSSC[C@@H](C(=O)N2CCC[C@H]2C(=O)N2CCC[C@H]2C(=O)N[C@@H](CCCCN)C(=O)N[C@@H](CC(=O)O)C(N)=O)NC(=O)C(C)(C)NC(=O)[C@H](Cc2ccc3ccccc3c2)NC(=O)[C@H](CCCNC(=N)N)NC(=O)[C@@H](Cc2ccc3ccccc3c2)NC(=O)[C@H](Cc2c[nH]cn2)NC(=O)[C@H](CCC(=O)O)NC1=O
As for B3, the Ki with hMC5-R [5] is 979 nM; in the assay with hMC4-R [6], 5.87 nM; with hMC1-R [7], 1820 nM; in the assay with hMC3-R [8], 306 nM.

B4: Table 2B compound 1 (peptide)
chain: Ac-CEH[d2Nal]R[2Nal][βAla]CPPKD-NH2
modifications: disulfide 1-8
SMILES: CC(=O)N[C@H]1CSSC[C@@H](C(=O)N2CCC[C@H]2C(=O)N2CCC[C@H]2C(=O)N[C@@H](CCCCN)C(=O)N[C@@H](CC(=O)O)C(N)=O)NC(=O)CCNC(=O)[C@H](Cc2ccc3ccccc3c2)NC(=O)[C@H](CCCNC(=N)N)NC(=O)[C@@H](Cc2ccc3ccccc3c2)NC(=O)[C@H](Cc2c[nH]cn2)NC(=O)[C@H](CCC(=O)O)NC1=O
For the molecule B4, the Ki with hMC5-R [5] amounted to 239 nM; in the assay with hMC4-R [6] it was 10.7 nM; with hMC1-R [7] it was 2060 nM; in the assay with hMC3-R [8], 113 nM.
